Publication doi:10.1101/2025.06.14.659724

Biological target: PSR2-PDF1-Cα heterotrimer (not stated | A. thaliana | human) (UniProt E0W4V5)
Assay: cryo-EM structure

“PSR2-PDF1-Cα heterotrimer (from UniProt E0W4V5;P67775) (complex)” was tested. Which stoichiometry N did it give?
The stoichiometry N was 2.
